Assay results from EP1113813B1.
Values joined by “and” are separate entries in the source; they are usually repeats but may differ in a detail not shown here. Equal values may be shown once.

Assays:
[1] = target: Zot binding sites (surface receptor) on human monocytes/macrophages (CD14+) (human)
[2] = target: Zot binding sites (surface receptor) on human monocytes/macrophages (CD14+) (human); assay: flow cytometry, MESF calibration, several volunteers
[3] = target: Zot binding sites on human T lymphocytes (CD3+) (human); assay: as above
[4] = target: Zot binding sites on human T lymphocytes (CD3+) (human); assay: real-time flow cytometry at 37°C, Zot-FITC 40 µg/ml, CD3 gate
[5] = target: Zot binding sites (surface receptor) on human monocytes/macrophages (CD14+) (human); assay: real-time flow cytometry at 37°C, Zot-FITC 40 µg/ml, CD14 gate
[6] = target: Zot binding sites (surface receptor) on human monocytes/macrophages (CD14+) (human); assay: flow cytometry, increasing concentrations of Zot-FITC on human PBMC
[7] = target: Zot binding sites on human T lymphocytes (CD3+) (human); assay: as above
[8] = target: Zot binding sites (surface receptor) on human monocytes/macrophages (CD14+) (human); assay: 4-color flow cytometry, 40 µg/ml Zot-FITC, 30 min at 37°C, CD14+ gate
[9] = target: Zot binding sites (surface receptor) on human monocytes/macrophages (CD14+) (human); assay: flow cytometry, MFI converted with Quantum 26 MESF kit, saturation conditions
[10] = target: Zot binding sites on human T lymphocytes (CD3+) (human); assay: as above
[11] = target: Zot binding sites (surface receptor) on human monocytes/macrophages (CD14+) (human); assay: flow cytometry; […] (10 µl); […]
[12] = target: Zot binding sites on human T lymphocytes (CD3+) (human); assay: flow cytometry; […] (10 µl); […]

**Q.** “6xHis-Zot fusion protein (purified Zot, unlabeled) (from UniProt P38442 1-399) (ligand)” was tested. Which percent suppression of Zot-FITC mean fluorescence intensity [1] did it give?
**A.** 24% and 43%

**Q.** For “Zot-FITC (6xHis-Zot fusion protein conjugated to fluorescein isothiocyanate, Examples 4-7) (from UniProt P38442 1-399) (ligand)”, which Zot binding sites/cell (mean of several volunteers) [2] is on record?
**A.** 105000 sites/cell

**Q.** What about the Zot binding sites/cell (mean of several volunteers) [3] of the same substance?
**A.** 10700 sites/cell

**Q.** What about the time to reach equilibrium [4] of the same substance?
**A.** < 2 min

**Q.** And the time to reach equilibrium [5]?
**A.** < 2 min

**Q.** And the concentration at which saturation is reached [6]?
**A.** 0.5 pM

**Q.** What about the concentration at which saturation is reached [7] of the same substance?
**A.** 0.5 pM

**Q.** And the fold binding against T or B lymphocytes [8]?
**A.** 5 fold and 8 fold

**Q.** And the Zot-binding sites/cell [9]?
**A.** 106000 sites/cell

**Q.** And the Zot-binding sites/cell [10]?
**A.** 9000 sites/cell

**Q.** What does the source list for “purified Zot (cleaved from MBP-Zot with Factor Xa, Example 1) (from UniProt P38442 9-399) (ligand)”?
**A.** percent decrease of Zot-FITC binding [11]: 33%; percent decrease of Zot-FITC binding [12]: 33%
